Measurements: article doi:10.1101/2020.12.21.423144 (bioRxiv, 2020)
Entries after “also recorded” stand apart in the source; their conditions may differ.

Key:
[1] = biological target: the molecule itself; assay: SDS-PAGE and Western blot densitometry
[2] = biological target: P29274; assay: SEC
[3] = biological target: the molecule itself; assay: SEC

Protein | dimer level (relative to monomer), with 5 mM TCEP [1] [arbitrary units] | dimer level (relative to monomer), without TCEP [1] [arbitrary units] | HMW oligomer level (relative to monomer) [2] | total oligomer level (HMW oligomer and dimer, relative to monomer) [2] | dimer level (relative to monomer) [3] [arbitrary units]
human adenosine A2A receptor, full-length wild type (receptor) MPIMGSSVYITVELAIAVLAILGNVLVCWAVWLNSNLQNVTNYFVVSLAAADIAVGVLAIPFAITISTGFCAACHGCLFIACFVLVLTQSSIFSLLAIAIDRYIAIRIPLRYNGLVTGTRAKGIIAICWVLSFAIGLTPMLGWNNCGQPKEGKNHSQGCGEGQVACLFEDVVPMNYMVYFNFFACVLVPLLLMLGVYLRIFLAARRQLKQMESQPLPGERARSTLQKEVHAAKSLAIIVGLFALCWLPLHIINCFTFFCPDCSHAPLWLMYLAIVLSHTNSVVNPFIYAYRIREFRQTFRKIIRSHVLRQQEPFKAAGTSARVLAAHGSDGEQVSLRLNGHPPGVWANGSAPHPERRPNGYALGLVSGGSAQESQGNTGLPDVELLSHELKGVCPEPPGLDDPLAQDGAGVS | 0.51 | 1.14 | ctrl: 0.88 | ctrl: 1.37; also recorded: WT: 1.34 | 
A2AR-N359ΔC with the ERR:AAA mutations (domain or fragment) MPIMGSSVYITVELAIAVLAILGNVLVCWAVWLNSNLQNVTNYFVVSLAAADIAVGVLAIPFAITISTGFCAACHGCLFIACFVLVLTQSSIFSLLAIAIDRYIAIRIPLRYNGLVTGTRAKGIIAICWVLSFAIGLTPMLGWNNCGQPKEGKNHSQGCGEGQVACLFEDVVPMNYMVYFNFFACVLVPLLLMLGVYLRIFLAARRQLKQMESQPLPGERARSTLQKEVHAAKSLAIIVGLFALCWLPLHIINCFTFFCPDCSHAPLWLMYLAIVLSHTNSVVNPFIYAYRIREFRQTFRKIIRSHVLRQQEPFKAAGTSARVLAAHGSDGEQVSLRLNGHPPGVWANGSAPHPAAAPN |  |  | ERR:AAA: 0.38 | ERR:AAA: 0.85 | 0.48
